In paper PMC7395439, “Identification of the initial nucleocapsid recognition element in the HIV-1 RNA packaging signal” one finds Kd data, which are given here for eight molecules.

Data set [1] has as its target HIV-1 nucleocapsid protein (NC) (HIV-1 NL4-3) (UniProt P12493). Description: ITC. The settings on record: ITC: 10 mM Tris-HCl pH 7.0, 140 mM KCl, 10 mM NaCl, 5 mM MgCl2, 5 mM TCEP, 30 °C; NC (120-240 µM) titrated into RNA (0.6-4 µM).
In data set [2] the target is T1, HIV-1 nucleocapsid protein (NC) (HIV-1 NL4-3, UniProt P12493). The experiment in a line: ITC; exothermic sites, n=6.6±0.2 per dimer; ITC: 10 mM Tris-HCl pH 7.0, 140 mM KCl, 10 mM NaCl, 5 mM MgCl2, 5 mM TCEP, 30 °C; NC (120-240 µM) titrated into RNA (0.6-4 µM). The settings on record: protein: recombinant; tags: none stated; duplex dimer of 2 strands. In general terms: ITC needs no label: the signal is the heat of the interaction.

The target in data set [3] is T1, HIV-1 nucleocapsid protein (NC). The experiment in a line: ITC; exothermic only, n=1.2±0.1; ITC: 10 mM Tris-HCl pH 7.0, 140 mM KCl, 10 mM NaCl, 5 mM MgCl2, 5 mM TCEP, 30 °C; NC (120-240 µM) titrated into RNA (0.6-4 µM). The settings on record: protein: recombinant; tags: none stated; hairpin, blunt.
The target is the same in data set [4]. Description: ITC; exothermic only, n=1.8±0.1; ITC: 10 mM Tris-HCl pH 7.0, 140 mM KCl, 10 mM NaCl, 5 mM MgCl2, 5 mM TCEP, 30 °C; NC (120-240 µM) titrated into RNA (0.6-4 µM). The following applies: protein: recombinant; tags: none stated; hairpin with single-stranded 3' GGAG region.
For data set [5] the target is unchanged. Description: ITC; exothermic sites, n=2.8±0.3; ITC: 10 mM Tris-HCl pH 7.0, 140 mM KCl, 10 mM NaCl, 5 mM MgCl2, 5 mM TCEP, 30 °C; NC (120-240 µM) titrated into RNA (0.6-4 µM). The following applies: protein: recombinant; tags: none stated; hairpin, unpaired 5'-GA and AG-3' ends.
For data set [6] the target is unchanged. The experiment in a line: ITC; endothermic sites, n=2.3±0.2; ITC: 10 mM Tris-HCl pH 7.0, 140 mM KCl, 10 mM NaCl, 5 mM MgCl2, 5 mM TCEP, 30 °C; NC (120-240 µM) titrated into RNA (0.6-4 µM). The following applies: protein: recombinant; tags: none stated; hairpin, unpaired 5'-GA and AG-3' ends.
Data set [7] shares this target. Description: ITC; exothermic only, n=1.2±0.3; ITC: 10 mM Tris-HCl pH 7.0, 140 mM KCl, 10 mM NaCl, 5 mM MgCl2, 5 mM TCEP, 30 °C; NC (120-240 µM) titrated into RNA (0.6-4 µM). The settings on record: protein: recombinant; tags: none stated; hairpin, blunt.

5'-LΔPBS: the dissociation constant Kd in data set [1] amounted to 760 nM.

In turn, 5'-L (5'-L344) returned a Kd in data set [1] of 880 nM. On the same count and under the same terms, next, TAR-PolyA: 1320 nM.

Consider GGCAGGACUCGGCUUGCUGAAGCGCGCACGGCAAGAGGCGAGGGGCC (structured_RNA) [DIS], for which the Kd in data set [2] was 340 ± 30 nM. Turning to GGACUAGCGGAGGCUAGUCC (structured_RNA) [Ψ-apical loop], the Kd in data set [3] was 320 ± 30 nM. As to GACUAGCGGAGGCUAGAAGGAG (structured_RNA) [Ψ-fragment], the Kd in data set [4] is 450 ± 30 nM. With GAUUUUGACUAGCGGAGGCUAGAAGGAGAG (structured_RNA) [ΨHP], the equilibrium dissociation constant (Kd) worked out at 1540 ± 240 nM in data set [5] and 26 ± 21 nM in data set [6]. On to GGUUUUGACUAGCGGAGGCUAGAAGGAGCC (structured_RNA) [ΨHP-stable], for which the Kd in data set [7] came to 300 ± 150 nM.

Broadly, the Kd is the concentration at which binding is half-saturated.
